Results as given in patent publication US20210317225A1 (Genmab, published 2021).
Values belong to the binder of their own block, whether it stands above or below them.

How the values were obtained:
Human CD137 (TNR9_Human) = Human CD137 (TNR9_Human) (human, UniProt Q07011 24-255); assay: cell-based or functional assay
Human CD40 = Human CD40 (human, UniProt P25942 21-277); assay: cell-based or functional assay
Sequence of Human CD40 (P25942 21-277): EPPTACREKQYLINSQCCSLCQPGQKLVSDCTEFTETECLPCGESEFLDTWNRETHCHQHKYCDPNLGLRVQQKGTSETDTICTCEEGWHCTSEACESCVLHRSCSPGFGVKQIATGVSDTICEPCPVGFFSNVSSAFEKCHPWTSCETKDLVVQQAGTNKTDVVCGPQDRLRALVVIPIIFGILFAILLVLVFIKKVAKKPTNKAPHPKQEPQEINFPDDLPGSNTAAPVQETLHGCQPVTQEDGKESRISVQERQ

Sequence of Human CD137 (TNR9_Human) (Q07011 24-255): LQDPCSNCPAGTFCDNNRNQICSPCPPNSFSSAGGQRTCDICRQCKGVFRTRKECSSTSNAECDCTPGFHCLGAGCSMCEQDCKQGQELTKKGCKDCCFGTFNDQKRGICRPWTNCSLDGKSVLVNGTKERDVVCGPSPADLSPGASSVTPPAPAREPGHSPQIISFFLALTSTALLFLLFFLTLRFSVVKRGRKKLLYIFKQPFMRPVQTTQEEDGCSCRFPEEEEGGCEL

luciferase activity (RLU) of NF-KB/293/GFP-Luc cells transduced with CD137, incubated with K562_CD40 (Human CD137 (TNR9_Human)): ~100 ng/mL | luciferase activity (RLU) of NF-KB/293/GFP-Luc cells transduced with CD40, incubated with K562_CD137 (Human CD40): ~100 ng/mL
B1: CD40-001-FEALxCD137-008-FEAR (bispecific antibody, human IgG1, kappa)
heavy 1: EVQLQQSGPDLVKPGASVKISCKTSGYTFTEYIMHWVKQSHGKSLEWIGGIIPNNGGTSYNQKFKDKATMTVDKSSSTGYMELRSLTSEDSAVYYCTRREVYGRNYYALDYWGQGTLVTVSSASTKGPSVFPLAPSSKSTSGGTAALGCLVKDYFPEPVTVSWNSGALTSGVHTFPAVLQSSGLYSLSSVVTVPSSSLGTQTYICNVNHKPSNTKVDKRVEPKSCDKTHTCPPCPAPEFEGGPSVFLFPPKPKDTLMISRTPEVTCVVVAVSHEDPEVKFNWYVDGVEVHNAKTKPREEQYNSTYRVVSVLTVLHQDWLNGKEYKCKVSNKALPAPIEKTISKAKGQPREPQVYTLPPSREEMTKNQVSLTCLVKGFYPSDIAVEWESNGQPENNYKTTPPVLDSDGSFLLYSKLTVDKSRWQQGNVFSCSVMHEALHNHYTQKSLSLSPGK
light 1: DIQMTQTTSSLSASLGDRVTITCSASQGINNYLNWYQQKPDGTVKLLIYYTSSLHSGVPSRFSGSGSGTDYSLTISNLEPEDIATYYCQQYSNLPYTFGGGTKLEIKRTVAAPSVFIFPPSDEQLKSGTASVVCLLNNFYPREAKVQWKVDNALQSGNSQESVTEQDSKDSTYSLSSTLTLSKADYEKHKVYACEVTHQGLSSPVTKSFNRGEC
heavy 2: QSLEESGGRLVTPGTPLTLTCTASGFSLSSYDMSWVRQAPGKGLEYIGYISSSGNTYYASWAKSRFTISKTSTTVDLKITSPTTEDTATYFCAREGDYWDFNLWGPGTLVTVSSASTKGPSVFPLAPSSKSTSGGTAALGCLVKDYFPEPVTVSWNSGALTSGVHTFPAVLQSSGLYSLSSVVTVPSSSLGTQTYICNVNHKPSNTKVDKRVEPKSCDKTHTCPPCPAPEFEGGPSVFLFPPKPKDTLMISRTPEVTCVVVAVSHEDPEVKFNWYVDGVEVHNAKTKPREEQYNSTYRVVSVLTVLHQDWLNGKEYKCKVSNKALPAPIEKTISKAKGQPREPQVYTLPPSREEMTKNQVSLTCLVKGFYPSDIAVEWESNGQPENNYKTTPPVLDSDGSFFLYSRLTVDKSRWQQGNVFSCSVMHEALHNHYTQKSLSLSPGK
light 2: AQVLTQTPSSVSAAVGGTVTINCQASQSISNLLAWYQQKPGQRPRLLIYRASTLASGVPSRFKGSGSGTEFTLTISDLESEDAATYYCAGGFPGLDTGATFGGGTEAVVTRTVAAPSVFIFPPSDEQLKSGTASVVCLLNNFYPREAKVQWKVDNALQSGNSQESVTEQDSKDSTYSLSSTLTLSKADYEKHKVYACEVTHQGLSSPVTKSFNRGEC

luciferase activity (RLU) of NF-KB/293/GFP-Luc cells transduced with CD137, incubated with K562_CD40 (Human CD137 (TNR9_Human)): ~100 ng/mL | luciferase activity (RLU) of NF-KB/293/GFP-Luc cells transduced with CD40, incubated with K562_CD137 (Human CD40): ~100 ng/mL
B2: CD40-001-FEALxCD137-011-FEAR (bispecific antibody, human IgG1, kappa)
heavy 1: B1 heavy 1
light 1: B1 light 1
heavy 2: QSLEESGGRLVTPGTPLTLTCTVSGIDLSSYHMCWVRQAPGKGLEYIGYIAYGGNTYYANWAKGRFTISKTSTTVDLRITSPTTEDTATYFCARGYSEDSYWGLWGPGTLVTVSSASTKGPSVFPLAPSSKSTSGGTAALGCLVKDYFPEPVTVSWNSGALTSGVHTFPAVLQSSGLYSLSSVVTVPSSSLGTQTYICNVNHKPSNTKVDKRVEPKSCDKTHTCPPCPAPEFEGGPSVFLFPPKPKDTLMISRTPEVTCVVVAVSHEDPEVKFNWYVDGVEVHNAKTKPREEQYNSTYRVVSVLTVLHQDWLNGKEYKCKVSNKALPAPIEKTISKAKGQPREPQVYTLPPSREEMTKNQVSLTCLVKGFYPSDIAVEWESNGQPENNYKTTPPVLDSDGSFFLYSRLTVDKSRWQQGNVFSCSVMHEALHNHYTQKSLSLSPGK
light 2: AYDMTQTPASVEAAVGGTVTIKCQASQNIENYLAWYQQKPGQPPKLLIYDTSKLTSGVPSRFSGSGSGTDFTLTISGVQSDDAATYYCQQDYGIIFVDNIFGGGTEVVVKRTVAAPSVFIFPPSDEQLKSGTASVVCLLNNFYPREAKVQWKVDNALQSGNSQESVTEQDSKDSTYSLSSTLTLSKADYEKHKVYACEVTHQGLSSPVTKSFNRGEC

luciferase activity (RLU) of NF-KB/293/GFP-Luc cells transduced with CD137, incubated with K562_CD40 (Human CD137 (TNR9_Human)): ~100 ng/mL | luciferase activity (RLU) of NF-KB/293/GFP-Luc cells transduced with CD40, incubated with K562_CD137 (Human CD40): ~100 ng/mL
B3: CD40-001-FEALxCD137-012-FEAR (bispecific antibody, human IgG1, kappa)
heavy 1: B1 heavy 1
light 1: B1 light 1
heavy 2: QSVEESGGRLVTPGTPLTLTCTVSGFSLSDYYMTWVRQAPGKGLEYIGIMSGSGSTYYASWAKGRFTISKTSSTTLELKITSPTTEDTAIYFCARDGDYAGWGYATGAFDPWGPGTLVTVSSASTKGPSVFPLAPSSKSTSGGTAALGCLVKDYFPEPVTVSWNSGALTSGVHTFPAVLQSSGLYSLSSVVTVPSSSLGTQTYICNVNHKPSNTKVDKRVEPKSCDKTHTCPPCPAPEFEGGPSVFLFPPKPKDTLMISRTPEVTCVVVAVSHEDPEVKFNWYVDGVEVHNAKTKPREEQYNSTYRVVSVLTVLHQDWLNGKEYKCKVSNKALPAPIEKTISKAKGQPREPQVYTLPPSREEMTKNQVSLTCLVKGFYPSDIAVEWESNGQPENNYKTTPPVLDSDGSFFLYSRLTVDKSRWQQGNVFSCSVMHEALHNHYTQKSLSLSPGK
light 2: AAVLTQTPSPVSAAVGGTVTISCQASQSVVGNSLLSWFQKKPGQPPKLLIYSASSLASGVPSRFKGSGSGTQFTLTISDLESDDAATYYCTGRYNSDTDTFVFGGGTEVVVKRTVAAPSVFIFPPSDEQLKSGTASVVCLLNNFYPREAKVQWKVDNALQSGNSQESVTEQDSKDSTYSLSSTLTLSKADYEKHKVYACEVTHQGLSSPVTKSFNRGEC

EC50 for induction of T-cell proliferation (antigen-specific CD8+ T-cell assay, proliferation index curves) (Human CD137 (TNR9_Human)): 0.03 µg/mL | luciferase activity (RLU) of NF-KB/293/GFP-Luc cells transduced with CD137, incubated with K562_CD40 (Human CD137 (TNR9_Human)): ~100 ng/mL | luciferase activity (RLU) of NF-KB/293/GFP-Luc cells transduced with CD40, incubated with K562_CD137 (Human CD40): ~100 ng/mL
B4: CD40-001-FEALxCD137-009-FEAR (bispecific antibody, human IgG1, kappa)
heavy 1: B1 heavy 1
light 1: B1 light 1
heavy 2: QSLEESGGRLVTPGTPLTLTCTVSGFSLNDYWMSWVRQAPGKGLEWIGYIDVGGSLYYASWAKGRFTISRTSTTVDLKMTSLTTEDTATYFCARGGLTYGFDLWGPGTLVTVSSASTKGPSVFPLAPSSKSTSGGTAALGCLVKDYFPEPVTVSWNSGALTSGVHTFPAVLQSSGLYSLSSVVTVPSSSLGTQTYICNVNHKPSNTKVDKRVEPKSCDKTHTCPPCPAPEFEGGPSVFLFPPKPKDTLMISRTPEVTCVVVAVSHEDPEVKFNWYVDGVEVHNAKTKPREEQYNSTYRVVSVLTVLHQDWLNGKEYKCKVSNKALPAPIEKTISKAKGQPREPQVYTLPPSREEMTKNQVSLTCLVKGFYPSDIAVEWESNGQPENNYKTTPPVLDSDGSFFLYSRLTVDKSRWQQGNVFSCSVMHEALHNHYTQKSLSLSPGK
light 2: DIVMTQTPASVSEPVGGTVTINCQASEDISSYLAWYQQKPGQRPKRLIYGASDLASGVPSRFSASGSGTEYALTISDLESADAATYYCHYYATISGLGVAFGGGTEVVVKRTVAAPSVFIFPPSDEQLKSGTASVVCLLNNFYPREAKVQWKVDNALQSGNSQESVTEQDSKDSTYSLSSTLTLSKADYEKHKVYACEVTHQGLSSPVTKSFNRGEC

luciferase activity (RLU) of NF-KB/293/GFP-Luc cells transduced with CD137, incubated with K562_CD40 (Human CD137 (TNR9_Human)): ~100 ng/mL | luciferase activity (RLU) of NF-KB/293/GFP-Luc cells transduced with CD40, incubated with K562_CD137 (Human CD40): ~100 ng/mL
B5: CD40-001-FEALxCD137-010-FEAR (bispecific antibody, human IgG1, kappa)
heavy 1: B1 heavy 1
light 1: B1 light 1
heavy 2: QSVEESGGRLVTPGTPLTLTCTVSGFSLSTYAMIWVRQAPGKGLEWIGVVYDNGYISHATWVKGRFTISKTSTTVGLEITSPTTEDTATYFCARSADGSWSTYFNLWGQGTLVTVSSASTKGPSVFPLAPSSKSTSGGTAALGCLVKDYFPEPVTVSWNSGALTSGVHTFPAVLQSSGLYSLSSVVTVPSSSLGTQTYICNVNHKPSNTKVDKRVEPKSCDKTHTCPPCPAPEFEGGPSVFLFPPKPKDTLMISRTPEVTCVVVAVSHEDPEVKFNWYVDGVEVHNAKTKPREEQYNSTYRVVSVLTVLHQDWLNGKEYKCKVSNKALPAPIEKTISKAKGQPREPQVYTLPPSREEMTKNQVSLTCLVKGFYPSDIAVEWESNGQPENNYKTTPPVLDSDGSFFLYSRLTVDKSRWQQGNVFSCSVMHEALHNHYTQKSLSLSPGK
light 2: DIVMTQTPASVEAAVGGTVTIKCQASESISNYLAWYQQKPGQPPKLLIYKASTLASGVSSRFKGSGSGTEFTLTISDLESADAATYYCQTNYCCSSSDNGFAFGGGTEVVVKRTVAAPSVFIFPPSDEQLKSGTASVVCLLNNFYPREAKVQWKVDNALQSGNSQESVTEQDSKDSTYSLSSTLTLSKADYEKHKVYACEVTHQGLSSPVTKSFNRGEC

luciferase activity (RLU) of NF-KB/293/GFP-Luc cells transduced with CD137, incubated with K562_CD40 (Human CD137 (TNR9_Human)): ~100 ng/mL | luciferase activity (RLU) of NF-KB/293/GFP-Luc cells transduced with CD40, incubated with K562_CD137 (Human CD40): ~100 ng/mL
B6: CD40-001-FEALxCD137-002-FEAR (bispecific antibody, human IgG1, kappa)
heavy 1: B1 heavy 1
light 1: B1 light 1
heavy 2: QSVEESGGRLVTPGTPLTLTCTVSGFSLTYYAVTWVRQPPGKGLEWIGVIYDNGATAFATWAKGRFTMSKNSTTVALKVTSPTTEDTATYFCARSANNAWSTYSNLWGQGTLVTVSSASTKGPSVFPLAPSSKSTSGGTAALGCLVKDYFPEPVTVSWNSGALTSGVHTFPAVLQSSGLYSLSSVVTVPSSSLGTQTYICNVNHKPSNTKVDKRVEPKSCDKTHTCPPCPAPEFEGGPSVFLFPPKPKDTLMISRTPEVTCVVVAVSHEDPEVKFNWYVDGVEVHNAKTKPREEQYNSTYRVVSVLTVLHQDWLNGKEYKCKVSNKALPAPIEKTISKAKGQPREPQVYTLPPSREEMTKNQVSLTCLVKGFYPSDIAVEWESNGQPENNYKTTPPVLDSDGSFFLYSRLTVDKSRWQQGNVFSCSVMHEALHNHYTQKSLSLSPGK
light 2: DIVMTQTPSSVSAAVGGTVTINCQASEDISSYLSWYQQKLGQPPKLLIYKASTLESGVPSRFKGSGSGTEYTLTISDLESDDAATYYCQSYYSGSISGYGFVFGGGTGVVVKRTVAAPSVFIFPPSDEQLKSGTASVVCLLNNFYPREAKVQWKVDNALQSGNSQESVTEQDSKDSTYSLSSTLTLSKADYEKHKVYACEVTHQGLSSPVTKSFNRGEC

luciferase activity (RLU) of NF-KB/293/GFP-Luc cells transduced with CD137, incubated with K562_CD40 (Human CD137 (TNR9_Human)): ~100 ng/mL | luciferase activity (RLU) of NF-KB/293/GFP-Luc cells transduced with CD40, incubated with K562_CD137 (Human CD40): ~100 ng/mL
B7: CD40-001-FEALxCD137-003-FEAR (bispecific antibody, human IgG1, kappa)
heavy 1: B1 heavy 1
light 1: B1 light 1
heavy 2: QSVEESGGRLVTPGTPLTLTCTASGFTISSYHMIWVRQAPGEGLEWIGDIYGGTATTDYASWAKGRFTISKTSTTVDLKMTSLTTEDTATYFCARARYSGGSYANYVFNLWGQGTLVTVSSASTKGPSVFPLAPSSKSTSGGTAALGCLVKDYFPEPVTVSWNSGALTSGVHTFPAVLQSSGLYSLSSVVTVPSSSLGTQTYICNVNHKPSNTKVDKRVEPKSCDKTHTCPPCPAPEFEGGPSVFLFPPKPKDTLMISRTPEVTCVVVAVSHEDPEVKFNWYVDGVEVHNAKTKPREEQYNSTYRVVSVLTVLHQDWLNGKEYKCKVSNKALPAPIEKTISKAKGQPREPQVYTLPPSREEMTKNQVSLTCLVKGFYPSDIAVEWESNGQPENNYKTTPPVLDSDGSFFLYSRLTVDKSRWQQGNVFSCSVMHEALHNHYTQKSLSLSPGK
light 2: DIVMTQTPASVEAAVGGTVTIKCQASQSISSYLAWYQQKPGQPPKLLIYRTSTLESGVPSRFKGSGSGTEFTLTISDLESADAATYYCQGYDWSSSNRYDNTFGGGTEVVVKRTVAAPSVFIFPPSDEQLKSGTASVVCLLNNFYPREAKVQWKVDNALQSGNSQESVTEQDSKDSTYSLSSTLTLSKADYEKHKVYACEVTHQGLSSPVTKSFNRGEC
